Reference: PMC5511352, “Structural insights into the mycobacteria transcription initiation complex from analysis of X-ray crystal structures”

Target: T1, RNAP alpha subunit C-terminal domain (alphaCTD, symmetry-related) (Mycobacterium smegmatis (mc2155), UniProt A0QSL8 251-350)
T1 sequence: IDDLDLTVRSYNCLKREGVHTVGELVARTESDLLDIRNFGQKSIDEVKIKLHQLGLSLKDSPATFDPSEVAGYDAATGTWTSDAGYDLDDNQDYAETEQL
Assay: X-ray crystallography (2.76 A); alphaCTD of symmetry-related complex; A/T-rich region -29 to -24; Crystallization: 0.1 M Bis-Tris pH 6.0, 0.2 M Li2SO4 (printed LiSO4), 16% PEG 3350, 2.5% ethylene glycol, 22 C; protein in 20 mM Tris-HCl pH 8, 100 mM K-glutamate, 10 mM MgCl2, 1 mM DTT
Conditions: protein: native; upstream fork (ds/ss junction)

B1: us-fork promoter fragment (mixed)
DNA 1: GCTTGACAAAAGTGTTAAATTGTGCTATACT
DNA 2: AGCACAATTTAACACTTTTGTCAAGC
Question: Does B1 bind?
Answer: binds
